The labels stand for the following.
B1: CPEB3 Ribozyme (parent)
chain: GGGGGCCACAGCAGAAGCGUUCACGUCGCGGCCCCUGUCAGAUUCUGGUGAAUCUGCGAAUUCUGCUGU

The data set covers variants of B1. Put plainly: self-cleavage, relative activity (ratio to wild type); higher = more cleavage; co-transcriptional.
In the case of A16G A52G, the self-cleavage came out at 0.87. On to A16G A52U, for which the self-cleavage was 0.804. For A16C A23C the value was 0.277; for A16C A23G, 0.0786.

Turning to A16C A23U, the self-cleavage amounted to 0.549.

Regarding A16C A60G, the self-cleavage was 0.418. For A16C A60U the value was 0.103; for A15U C27A, 0.0897. For A15U C27G the value was 0.168; for A16G C33G, 0.29; for A16G C33U, 0.946. On to A16C A40C, for which the self-cleavage came to 0.118. With A16C A40U, the self-cleavage worked out at 0.0836.

In the case of A15G U49C, the self-cleavage was found to be 0.968.

A15G U49G: the self-cleavage was found to be 0.95. For A15G U49A the value was 0.986. Consider A15U U64G, for which the self-cleavage was 0.549. For A15U U64C the value was 0.654; for A15U U64A, 0.683; for A15U U69G, 0.998. Regarding A15U, the self-cleavage worked out at 0.928. For A15G U21A the value was 0.956; for A15G U21G, 0.578. For A15U U36A the value was 0.194; for A15U U36G, 0.181. For A15G G48A the value was 0.966. Regarding A15G G48U, the self-cleavage is 0.989. For A15G G48C the value was 1.

With A15G G30U, the self-cleavage is 0.342. As to A15G G30A, the self-cleavage worked out at 0.917.

As for A16C C33A, the self-cleavage turned out to be 0.213. As for A16C C33G, the self-cleavage was determined as 0.0588. For A16C U64G the value was 0.119; for A15G G37U, 0.286. Take A15G G37A: the self-cleavage is 0.27. With A16G A23U, the self-cleavage amounted to 0.955.

For the variant A16G A23C, the self-cleavage worked out at 0.928.

In the case of A16G A23G, the self-cleavage was determined as 0.921.

As to A16C U21A, the self-cleavage came to 0.273.

Consider A16C U21G, for which the self-cleavage turned out to be 0.0655.

For the variant A15G G28A, the self-cleavage turned out to be 0.179. On to A15G G28U, for which the self-cleavage was found to be 0.141.

Take A15U A52C: the self-cleavage is 0.889. Take A15U A52U: the self-cleavage worked out at 0.804. As to A15U G56A, the self-cleavage amounted to 0.648. On to A15U G56C, for which the self-cleavage amounted to 0.402. On to A16C U67A, for which the self-cleavage amounted to 0.331.

As for A16C U67G, the self-cleavage amounted to 0.257. For A15U G25U the value was 0.148; for A16C C54U, 0.313. For A16C C54G the value was 0.152; for A16C C54A, 0.256. For A16G C35U the value was 0.893. In the case of A15U A60C, the self-cleavage stood at 0.298. For A15U A60G the value was 0.416; for A15U G19C, 0.132; for A15U G19U, 0.127. For A15U G19A the value was 0.13; for A16C A59G, 0.287.

Regarding A15U A16C, the self-cleavage came out at 0.135. For A15U A16U, the self-cleavage was 0.798.

On to A15U G17U, for which the self-cleavage amounted to 0.221.

For the variant A15U G17A, the self-cleavage is 0.159. Regarding A16C U69A, the self-cleavage is 0.451.

For A16C U69G, the self-cleavage was found to be 0.588. For A16C C63U the value was 0.19; for A16C C63A, 0.173; for A16C C63G, 0.12.

Turning to A16C G48U, the self-cleavage came out at 0.375.

As to A16C G48A, the self-cleavage was determined as 0.328.

Turning to A16G A40C, the self-cleavage came to 0.243.

A16G A40U: the self-cleavage is 0.409. For A15U A59G the value was 0.856; for A15U A59U, 0.331. For A15U A59C the value was 0.42; for A16C G56U, 0.145.

As to A16C A51G, the self-cleavage amounted to 0.33. For A16C A51C the value was 0.217; for A16C A51U, 0.239.

Take A16G C39A: the self-cleavage came to 0.591. For the variant A16G C39U, the self-cleavage was 0.808.

For A16G C39G, the self-cleavage was determined as 0.745. For A16C G17A the value was 0.144; for A16C G17C, 0.0992.

For the variant A16C G17U, the self-cleavage is 0.127.

A15U U55C: the self-cleavage amounted to 0.418. For A15U U55A the value was 0.412; for A15U C57G, 0.259; for A15U C57A, 0.298. For A16G C18A the value was 0.0836. Regarding A16G C18U, the self-cleavage amounted to 0.569. Turning to A15G U36A, the self-cleavage stood at 0.203.

On to A15G U36G, for which the self-cleavage amounted to 0.152. For A15G U36C the value was 0.966; for A16C U55A, 0.153; for A16C U55G, 0.204. For A16C C66G, the self-cleavage was found to be 0.198.

Consider A16C C66A, for which the self-cleavage was 0.18.

For the variant A16C G47A, the self-cleavage was 0.303. For A16C G47C the value was 0.368. For A15U G68C the value was 0.929. For A15U G31U the value was 0.205; for A15U G31A, 0.248. For the variant A15U G31C, the self-cleavage is 0.183. For A16C C34U the value was 0.353; for A16C C34G, 0.168; for A16C U49A, 0.419.

Regarding A16C U49G, the self-cleavage is 0.319.

Take A16C U49C: the self-cleavage turned out to be 0.377. For A16G C63G the value was 0.527; for A16G C63A, 0.648; for A15G U62C, 0.956. For A15G U62A the value was 0.906; for A16C C27A, 0.114; for A16C C27U, 0.15. For A16C C27G, the self-cleavage was 0.122.

With A15G G50A, the self-cleavage is 0.973. For A15U U43C the value was 0.731; for A15U U43G, 0.429.

Take A15U U43A: the self-cleavage is 0.479. For A16C G50C the value was 0.301. Regarding A15U G48A, the self-cleavage was determined as 0.925. For A16G the value was 0.946; for A16C, 0.373. For A15G U38G, the self-cleavage came out at 0.157. For A15G U38C the value was 0.97; for A15G U67A, 0.971; for A15G U67G, 0.996. For A15G U67C, the self-cleavage stood at 0.943.

For A15U C29A, the self-cleavage was 0.245. For A15U C29G the value was 0.169; for A16C U38G, 0.15; for A16C U38C, 0.137. For A16C U38A the value was 0.269; for A15G G25U, 0.148. For A15G G25A the value was 0.127. As to A15G G25C, the self-cleavage was found to be 0.133. For A15U C66U the value was 0.643. For A15U C66A the value was 0.324; for A15U C66G, 0.516; for A15U G28C, 0.206.

Regarding A15U G28U, the self-cleavage amounted to 0.167. On to A16G C34A, for which the self-cleavage came to 0.583.

A16G C34U: the self-cleavage was 0.845. For the variant A16G C34G, the self-cleavage turned out to be 0.576. Take A15U A23U: the self-cleavage amounted to 0.95.

For A15U A23G, the self-cleavage was 0.658. For A15U A23C the value was 0.723; for A15U G58C, 0.821. A15U G58A: the self-cleavage came out at 0.754. For A15U G58U the value was 0.963.

Consider A15G U69A, for which the self-cleavage is 1.04. For A15G U69G the value was 1.05.

Regarding A15G U69C, the self-cleavage came to 1.05. For A15U C33U the value was 0.912; for A15U C33A, 0.493; for A16G C45U, 0.884.

Regarding A16G C45G, the self-cleavage came out at 0.958. For A16G C45A the value was 0.811; for A15U C35U, 0.776; for A16C G25U, 0.103.

In the case of A16C G25A, the self-cleavage was 0.139. Consider A16G A60C, for which the self-cleavage stood at 0.58. For A16G A60U the value was 0.207.

Regarding A16C C39A, the self-cleavage amounted to 0.108. For A16C C29A the value was 0.186; for A16C C29G, 0.165.

The record behind these values is the RNAGym collection of RNA variant scans (doi:10.7554/elife.80360).
